Six sequences from the supplement of paper PMC5998384 can be followed below.

Data set [1] has as its system HeLa Kyoto. Kind of data set: solubility in G1/S (NP-40 vs SDS abundance) (log2 ratio); higher = more soluble. As to conditions: cell cycle stage: G1/S.
Data set [2] concerns HeLa Kyoto. The data set is described as follows: thermal stability score vs G1/S (z-score of summed log2 fold changes over temperatures); higher = more thermally stable than in G1/S.
In data set [3] the test system is HeLa Kyoto. Kind of data set: solubility change mitosis vs G1/S (difference of NP-40 vs SDS log2 ratios) (log2 ratio difference); higher = more soluble in mitosis.
Data set [4] has as its system HeLa Kyoto. Kind of data set: melting temperature (median over replicates), in situ; higher = more thermally stable.
The mark [5] stands for this setting: cell cycle stage: early G1 (4.5 h after nocodazole release).
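For melting temperature (median over replicates), in situ in this document: HeLa Kyoto cells synchronized by double thymidine or nocodazole block, proteins quantified by TMT10plex mass spectrometry, three independent biological replicates.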
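For solubility change mitosis vs G1/S (difference of NP-40 vs SDS log2 ratios) in this document: synchronized HeLa Kyoto cells (double thymidine block for G1/S, nocodazole release for mitosis), protein amounts in NP-40 versus SDS lysates quantified by mass spectrometry, three biological replicates.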
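For solubility in G1/S (NP-40 vs SDS abundance) in this document: HeLa Kyoto cells arrested at G1/S by double thymidine block, proteins quantified by TMT10plex mass spectrometry in mild NP-40 versus SDS extracts, three biological replicates.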
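For thermal stability score vs G1/S (z-score of summed log2 fold changes over temperatures) in this document: synchronized HeLa Kyoto cells, proteins quantified by TMT10plex mass spectrometry, three biological replicates, mitosis taken 0.5 h after nocodazole release, G1/S directly after double thymidine block.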

With “MVKIVTVKTQAYQDQKPGTSGLRKRVKVFQSSANYAENFIQSIISTVEPAQRQEATLVVGGDGRFYMKEAIQLIARIAAANGIGRLVIGQNGILSTPAVSCIIRKIKAIGGIILTASHNPGGPNGDFGIKFNISNGGPAPEAITDKIFQISKTIEEYAVCPDLKVDLGVLGKQQFDLENKFKPFTVEIVDSVEAYATMLRSIFDFSALKELLSGPNRLKIRIDAMHGVVGPYVKKILCEELGAPANSAVNCVPLEDFGGHHPDPNLTYAADLVETMKSGEHDFGAAFDGDGDRNMILGKHGFFVNPSDSVAVIAANIFSIPYFQQTGVRGFARSMPTSGALDRVASATKIALYETPTGWKFFGNLMDASKLSLCGEESFGTGSDHIREKDGLWAVLAWLSILATRKQSVEDILKDHWQKYGRNFFTRYDYEEVEAEGANKMMKDLEALMFDRSFVGKQFSANDKVYTVEKADNFEYSDPVDGSISRNQGLRLIFTDGSRIVFRLSGTGSAGATIRLYIDSYEKDVAKINQDPQVMLAPLISIALKVSQLQERTGRTAPTVIT [PGM1]”, the “solubility in G1/S (log2)” value in the data set with HeLa Kyoto [1] worked out at 0.266. Besides, the thermal stability score with HeLa Kyoto [2] (setting [5]) is -0.26; in the data set on HeLa Kyoto [2] (cell cycle stage: mitosis), 0.494. The “solubility change mitosis (log2)” value in the data set on HeLa Kyoto [3] was -0.0698. For the same sequence, the melting temperature in the data set on HeLa Kyoto [4] (cell cycle stage: G1/S) is 57.6 °C; with HeLa Kyoto [4] (cell cycle stage: mitosis) it was 58.3 °C.
In the case of “MVLESTMVCVDNSEYMRNGDFLPTRLQAQQDAVNIVCHSKTRSNPENNVGLITLANDCEVLTTLTPDTGRILSKLHTVQPKGKITFCTGIRVAHLALKHRQGKNHKMRIIAFVGSPVEDNEKDLVKLAKRLKKEKVNVDIINFGEEEVNTEKLTAFVNTLNGKDGTGSHLVTVPPGPSLADALISSPILAGEGGAMLGLGASDFEFGVDPSADPELALALRVSMEEQRQRQEEEARRAAAASAAEAGIATTGTEDSDDALLKMTISQQEFGRTGLPDLSSMTEEEQIAYAMQMSLQGAEFGQAESADIDASSAMDTSEPAKEEDDYDVMQDPEFLQSVLENLPGVDPNNEAIRNAMGSLASQATKDGKKDKKEEDKK [PSMD4]”, in the data set on HeLa Kyoto [1], the “solubility in G1/S (log2)” value is 0.287. Also, the figures for the thermal stability score in the data set on HeLa Kyoto [2] (setting [5]) and with HeLa Kyoto [2] (cell cycle stage: mitosis) were -0.808 and -1.22, respectively. Besides, in the data set on HeLa Kyoto [3], the “solubility change mitosis (log2)” value was -0.0985. The figures for the melting temperature in the data set with HeLa Kyoto [4] (cell cycle stage: G1/S) and in the data set with HeLa Kyoto [4] (cell cycle stage: mitosis) were 53.3 °C and 53.9 °C, respectively.
Regarding “MVLESVARIVKVQLPAYLKRLPVPESITGFARLTVSEWLRLLPFLGVLALLGYLAVRPFLPKKKQQKDSLINLKIQKENPKVVNEINIEDLCLTKAAYCRCWRSKTFPACDGSHNKHNELTGDNVGPLILKKKEV [CISD2]”, the “solubility in G1/S (log2)” value in the data set on HeLa Kyoto [1] is 0.0551. Also, the thermal stability score is -4.5 in the data set on HeLa Kyoto [2] (setting [5]) and -5.22 in the data set on HeLa Kyoto [2] (cell cycle stage: mitosis). Moreover, the “solubility change mitosis (log2)” value with HeLa Kyoto [3] was 0.0164. Further, the melting temperature was determined as 54.2 °C in the data set on HeLa Kyoto [4] (cell cycle stage: G1/S) and 54.7 °C with HeLa Kyoto [4] (cell cycle stage: mitosis).
Take “MVLIKEFRVVLPCSVQEYQVGQLYSVAEASKNETGGGEGIEVLKNEPYEKDGEKGQYTHKIYHLKSKVPAFVRMIAPEGSLVFHEKAWNAYPYCRTIVTNEYMKDDFFIKIETWHKPDLGTLENVHGLDPNTWKTVEIVHIDIADRSQVEPADYKADEDPALFQSVKTKRGPLGPNWKKELANSPDCPQMCAYKLVTIKFKWWGLQSKVENFIQKQEKRIFTNFHRQLFCWIDKWIDLTMEDIRRMEDETQKELETMRKRGSVRGTSAADV [PITPNB]”: in the data set with HeLa Kyoto [1], the “solubility in G1/S (log2)” value is 0.199. Moreover, the thermal stability score with HeLa Kyoto [2] (setting [5]) worked out at 2.34; with HeLa Kyoto [2] (cell cycle stage: mitosis), 2.14. Also, in the data set on HeLa Kyoto [3], the “solubility change mitosis (log2)” value was -0.0681. Also, the figures for the melting temperature in the data set with HeLa Kyoto [4] (cell cycle stage: G1/S) and in the data set on HeLa Kyoto [4] (cell cycle stage: mitosis) were 52.9 °C and 53.4 °C, respectively.
Take “MVLLAAAVCTKAGKAIVSRQFVEMTRTRIEGLLAAFPKLMNTGKQHTFVETESVRYVYQPMEKLYMVLITTKNSNILEDLETLRLFSRVIPEYCRALEENEISEHCFDLIFAFDEIVALGYRENVNLAQIRTFTEMDSHEEKVFRAVRETQEREAKAEMRRKAKELQQARRDAERQGKKAPGFGGFGSSAVSGGSTAAMITETIIETDKPKVAPAPARPSGPSKALKLGAKGKEVDNFVDKLKSEGETIMSSSMGKRTSEATKMHAPPINMESVHMKIEEKITLTCGRDGGLQNMELHGMIMLRISDDKYGRIRLHVENEDKKGVQLQTHPNVDKKLFTAESLIGLKNPEKSFPVNSDVGVLKWRLQTTEESFIPLTINCWPSESGNGCDVNIEYELQEDNLELNDVVITIPLPSGVGAPVIGEIDGEYRHDSRRNTLEWCLPVIDAKNKSGSLEFSIAGQPNDFFPVQVSFVSKKNYCNIQVTKVTQVDGNSPVRFSTETTFLVDKYEIL [ARCN1]”: in the data set with HeLa Kyoto [1], the “solubility in G1/S (log2)” value was -0.104. The values for the thermal stability score in the data set on HeLa Kyoto [2] (setting [5]) and with HeLa Kyoto [2] (cell cycle stage: mitosis) were 1.07 and 0.0434, respectively. Moreover, the “solubility change mitosis (log2)” value in the data set on HeLa Kyoto [3] is -0.0987. For the same sequence, the melting temperature worked out at 51.7 °C in the data set on HeLa Kyoto [4] (cell cycle stage: G1/S) and 51.8 °C in the data set with HeLa Kyoto [4] (cell cycle stage: mitosis).
For “MVLLESEQFLTELTRLFQKCRTSGSVYITLKKYDGRTKPIPKKGTVEGFEPADNKCLLRATDGKKKISTVVSSKEVNKFQMAYSNLLRANMDGLKKRDKKNKTKKTKAAAAAAAAAPAAAATAPTTAATTAATAAQ [SRP14]”, the “solubility in G1/S (log2)” value in the data set on HeLa Kyoto [1] was 0.1. For the same sequence, the thermal stability score in the data set on HeLa Kyoto [2] (setting [5]) was -2.96; with HeLa Kyoto [2] (cell cycle stage: mitosis), -4.66. Also, in the data set with HeLa Kyoto [3], the “solubility change mitosis (log2)” value was 0.409. Moreover, the melting temperature in the data set with HeLa Kyoto [4] (cell cycle stage: G1/S) worked out at 53.6 °C; in the data set with HeLa Kyoto [4] (cell cycle stage: mitosis), 52.6 °C.
